2 molecules from PMC4540320, “A Newly-Identified Polymorphism in Rhesus Macaque Complement Factor H Modulates Binding Affinity for Meningococcal FHbp” (PLoS ONE, 2015) can be followed below.

Assay [1] addresses rhesus macaque serum Factor H, sequence type YS/YP (heterozygous) (rhesus macaque (endogenous in serum)). In words: SPR; Biacore X100 Plus, CM5 chip with immobilised goat anti-human FH; FH (~600 RU) captured from a 1:50 serum dilution; FHbp 3.16 to 316 nM in solution, single-cycle kinetics, 1:1 binding model. In general terms: In SPR one partner is held on a chip, and binding of the other changes the refractive index at the surface.

In assay [2] the target is rhesus macaque serum Factor H, sequence type HP/YP (heterozygous) (rhesus macaque (endogenous in serum)). Described as above.
The target of assay [3] is rhesus macaque serum Factor H, sequence type HP/YS (heterozygous) (rhesus macaque (endogenous in serum)). The assay is described as above.
For assay [4], the target named is rhesus macaque serum Factor H, sequence type HP/HP (H352 with P360, homozygous) (rhesus macaque (endogenous in serum)). The description is as above.
For assay [5], the target named is T1, human complement Factor H (human (endogenous in serum), UniProt P08603 19-1231).
T1 construct: also called human FH; human serum FH; source: endogenous, human serum; also purified from the same subject
T1 sequence (P08603 19-1231): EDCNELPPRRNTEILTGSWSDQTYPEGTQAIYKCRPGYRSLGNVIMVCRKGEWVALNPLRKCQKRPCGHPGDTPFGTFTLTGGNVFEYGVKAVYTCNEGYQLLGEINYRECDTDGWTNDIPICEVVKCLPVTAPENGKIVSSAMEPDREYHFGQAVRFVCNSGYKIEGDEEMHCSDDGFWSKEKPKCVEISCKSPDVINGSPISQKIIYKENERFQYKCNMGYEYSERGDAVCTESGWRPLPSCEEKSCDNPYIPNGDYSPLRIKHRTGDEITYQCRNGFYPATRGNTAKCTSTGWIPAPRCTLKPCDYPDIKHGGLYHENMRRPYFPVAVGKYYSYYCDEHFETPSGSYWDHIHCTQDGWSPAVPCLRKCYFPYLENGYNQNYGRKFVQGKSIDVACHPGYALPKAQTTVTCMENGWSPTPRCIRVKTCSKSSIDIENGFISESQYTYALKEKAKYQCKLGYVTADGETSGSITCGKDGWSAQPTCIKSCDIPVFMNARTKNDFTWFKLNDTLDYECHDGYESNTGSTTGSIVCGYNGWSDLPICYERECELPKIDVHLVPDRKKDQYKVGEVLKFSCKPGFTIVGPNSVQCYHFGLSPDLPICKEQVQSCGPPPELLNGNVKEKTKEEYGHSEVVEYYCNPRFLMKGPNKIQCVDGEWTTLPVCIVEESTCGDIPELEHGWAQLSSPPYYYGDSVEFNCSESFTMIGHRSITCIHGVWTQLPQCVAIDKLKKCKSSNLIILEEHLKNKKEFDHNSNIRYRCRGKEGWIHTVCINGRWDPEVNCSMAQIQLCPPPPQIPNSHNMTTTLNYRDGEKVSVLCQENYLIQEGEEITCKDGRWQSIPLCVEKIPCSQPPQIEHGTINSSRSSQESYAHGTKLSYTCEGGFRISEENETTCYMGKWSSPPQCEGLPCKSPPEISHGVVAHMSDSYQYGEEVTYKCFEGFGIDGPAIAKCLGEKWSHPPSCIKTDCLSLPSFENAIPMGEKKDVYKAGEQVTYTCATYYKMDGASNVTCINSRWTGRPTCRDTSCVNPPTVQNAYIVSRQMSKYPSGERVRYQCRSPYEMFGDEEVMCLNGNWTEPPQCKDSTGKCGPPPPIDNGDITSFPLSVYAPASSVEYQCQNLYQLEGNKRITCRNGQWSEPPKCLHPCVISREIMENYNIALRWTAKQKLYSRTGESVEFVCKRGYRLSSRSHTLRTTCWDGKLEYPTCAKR
Put plainly: SPR; as the serum capture assay, but with human FH purified from the same subject captured on immobilised goat anti-human FH; FHbp in solution, single-cycle kinetics, 1:1 binding model. The settings on record: both partners purified.

The target in assay [6] is T1, human complement Factor H. In words: SPR; Biacore X100 Plus, CM5 chip with immobilised goat anti-human FH; FH (~600 RU) captured from a 1:50 serum dilution; FHbp 3.16 to 316 nM in solution, single-cycle kinetics, 1:1 binding model. The note with it: one partner purified.

A word on the Kd: it is the free concentration of one partner at which half of the binding sites on the other are occupied at equilibrium, for simple one-to-one binding. The term kon denotes the rate constant with which the complex forms. For “recombinant Factor H binding protein (FHbp) ID 1 (from UniProt Q9JXV4 20-274) (natural protein)”, the Kd in assay [1] stood at 10.4 nM; in assay [2], 18.2 nM; in assay [3], 99.5 nM; in assay [4] it was 100 nM. Also, the kon in assay [1] was 180000 M⁻¹ s⁻¹; in assay [2] it was 180000 M⁻¹ s⁻¹; in assay [3] it was 190000 M⁻¹ s⁻¹; in assay [4] it was 180000 M⁻¹ s⁻¹.

B1: recombinant Factor H binding protein (FHbp) ID 1 (natural protein)
chain: CSSGGGGVAADIGAGLADALTAPLDHKDKGLQSLTLDQSVRKNEKLKLAAQGAEKTYGNGDSLNTGKLKNDKVSRFDFIRQIEVDGQLITLESGEFQVYKQSHSALTAFQTEQIQDSEHSGKMVAKRQFRIGDIAGEHTSFDKLPEGGRATYRGTAFGSDDAGGKLTYTIDFAAKQGNGKIEHLKSPELNVDLAAADIKPDGKRHAVISGSVLYNQAEKGSYSLGIFGGKAQEVAGSAEVKTVNGIRHIGLAAKQ
notes: also called meningococcal FHbp; source: recombinant, purified as described previously [14] with a second ion exchange chromatography step (HiTrap SP HP)
For the molecule B1, in assay [5], the Kd amounted to 18.2 nM and the kon came out at 220000 M⁻¹ s⁻¹. Besides, in assay [6], the Kd was determined as 19.8 nM and the kon is 190000 M⁻¹ s⁻¹.
